Data on three substances can be found in patent US5693476.

The target in assay [1] is GST-syntaxin 1A cytoplasmic domain fusion protein (Syn 1A11, amino acids 4-266), immobilized on glutathione agarose beads (Schistosoma japonicum; rat). Put plainly: 20S complex assembly on GST-syntaxin beads with SNAP-25, VAMP, α-SNAP and NSF added together, ATPγS, 25° C., Western blot densitometry, FIG. 6A.
The target in assay [2] is GST-syntaxin 1A H3 domain construct Syn 1A16 (amino acids 191-266) (Schistosoma japonicum; rat). Put plainly: 20S complex on GST-Syn 1A16 beads, ATP and Mg++, Western blot densitometry.
In assay [3] the target is GST-syntaxin 1A cytoplasmic domain fusion protein (Syn 1A11, amino acids 4-266), immobilized on glutathione agarose beads (Schistosoma japonicum; rat). Put plainly: 20S complex assembly on GST-syntaxin beads with all four proteins together, ATPγS, 18° C. overnight MgCl2, Western blot densitometry, FIG. 6B.
Assay [4] deals with GST-syntaxin 1A deletion mutant Syn 1A13 (amino acids 4-221) (Schistosoma japonicum; rat). The description is as above.
Assay [5] deals with GST-syntaxin 1A deletion mutant Syn 1A17 (amino acids 4-240) (Schistosoma japonicum; rat). The description is as above.
Assay [6] deals with GST-syntaxin 1A H3 domain construct Syn 1A16 (amino acids 191-266) (Schistosoma japonicum; rat). The description is as above.
For assay [7], the target named is GST-syntaxin 1A deletion mutant Syn 1A6 (amino acids 4-190) (Schistosoma japonicum; rat). The description is as above.
The target of assay [8] is GST-syntaxin 1A cytoplasmic domain fusion protein (Syn 1A11, amino acids 4-266), immobilized on glutathione agarose beads (Schistosoma japonicum; rat). The assay can be described thus: 20S complex assembly on GST-syntaxin beads with SNAP-25, VAMP, α-SNAP and NSF added together, ATP, 25° C., Western blot densitometry, FIG. 6A.
Assay [9] shares this target. The assay can be described thus: 20S complex assembly on GST-syntaxin beads with all four proteins together, ATP, 18° C. overnight MgCl2, Western blot densitometry, FIG. 6B.
Assay [10] concerns the target GST-syntaxin 1A deletion mutant Syn 1A13 (amino acids 4-221) (Schistosoma japonicum; rat). The assay is described as above.
Assay [11] has as its target GST-syntaxin 1A deletion mutant Syn 1A17 (amino acids 4-240) (Schistosoma japonicum; rat). The description is as above.
In assay [12] the target is GST-syntaxin 1A H3 domain construct Syn 1A16 (amino acids 191-266) (Schistosoma japonicum; rat). Described as above.
Assay [13] has as its target GST-syntaxin 1A deletion mutant Syn 1A6 (amino acids 4-190) (Schistosoma japonicum; rat). The description is as above.
The target in assay [14] is GST-syntaxin 1A deletion mutant Syn 1A17 (amino acids 4-240) (Schistosoma japonicum; rat). The assay can be described thus: 20S complex on GST-Syn 1A17 beads, ATP and Mg++, Western blot densitometry.
Assay [15] concerns the target GST-syntaxin 1A deletion mutant Syn 1A4 (amino acids 8-76) (Schistosoma japonicum; rat). The assay can be described thus: GST-syntaxin deletion mutant on glutathione beads, soluble ligand, Western blot densitometry; FIG. 4C row 1 from top, row label only in the figure (assigned by Table 1 order and paragraph 328).
For assay [16], the target named is GST-syntaxin 1A deletion mutant Syn 1A13 (amino acids 4-221) (Schistosoma japonicum; rat). Put plainly: GST-syntaxin deletion mutant on glutathione beads, soluble ligand, Western blot densitometry; FIG. 4C row 4 from top, row label only in the figure (assigned by Table 1 order and paragraph 328).
For assay [17], the target named is GST-syntaxin 1A (Syn1A11) point mutant 12 (four point mutations) (Schistosoma japonicum; rat). Put plainly: GST-syntaxin point mutant on glutathione beads, soluble ligand, Western blot densitometry, FIG. 5B.
Assay [18] concerns the target GST-syntaxin 1A (Syn1A11) point mutant 45 (Schistosoma japonicum; rat). The assay is described as above.
Assay [19] concerns the target GST-syntaxin 1A (Syn1A11) point mutant 13 (four point mutations) (Schistosoma japonicum; rat). The description is as above.
Assay [20] deals with GST-syntaxin 1A (Syn1A11) point mutant M6: A240V, V244A (Schistosoma japonicum; rat). The description is as above.
In assay [21] the target is GST-syntaxin 1A (Syn1A11) point mutant 34 (Schistosoma japonicum; rat). Described as above.
For assay [22], the target named is GST-syntaxin 1A (Syn1A11) point mutant M4: V223A, Q226A (Schistosoma japonicum; rat). Described as above.
The target in assay [23] is GST-syntaxin 1A (Syn1A11) point mutant M2: L205A, I209A (Schistosoma japonicum; rat). The description is as above.
The target in assay [24] is GST-syntaxin 1A (Syn1A11) point mutant M3: L212A, F216A (Schistosoma japonicum; rat). Described as above.
Assay [25] concerns the target GST-syntaxin 1A (Syn1A11) point mutant M5: I230A, I233A (Schistosoma japonicum; rat). The description is as above.
Assay [26] concerns the target GST-syntaxin 1A (Syn1A11) point mutant M1: R198A, I202A (Schistosoma japonicum; rat). The assay is described as above.
In assay [27] the target is GST-syntaxin 1A deletion mutant Syn 1A6 (amino acids 4-190) (Schistosoma japonicum; rat). Put plainly: GST-syntaxin deletion mutant on glutathione beads, soluble ligand, Western blot densitometry; FIG. 4C row 3 from top, row label only in the figure (assigned by Table 1 order and paragraph 328).
The target in assay [28] is GST-syntaxin 1A deletion mutant Syn 1A17 (amino acids 4-240) (Schistosoma japonicum; rat). The assay can be described thus: GST-syntaxin deletion mutant on glutathione beads, soluble ligand, Western blot densitometry; FIG. 4C row 5 from top, row label only in the figure (assigned by Table 1 order and paragraph 328).
Assay [29] deals with GST-syntaxin 1A cytoplasmic domain fusion protein (Syn 1A11, amino acids 4-266), immobilized on glutathione agarose beads (Schistosoma japonicum; rat). Put plainly: GST-syntaxin 1A (wild type) on glutathione beads, soluble ligand, Western blot densitometry, FIG. 5B.
Assay [30] deals with GST-syntaxin 1A deletion mutant Syn 1A5 (amino acids 4-114) (Schistosoma japonicum; rat). Put plainly: GST-syntaxin deletion mutant on glutathione beads, soluble ligand, Western blot densitometry; FIG. 4C row 2 from top, row label only in the figure (assigned by Table 1 order and paragraph 328).
Assay [31] concerns the target VAMP 2 cytoplasmic domain (amino acids 1-94), recombinant, immobilized on the SPR flow cell (rat). Put plainly: SPR (BIAcore), VAMP 2 cytoplasmic domain immobilized.
The target is the same in assay [32]. Put plainly: SPR (BIAcore), VAMP 2 cytoplasmic domain immobilized; KD = kd/ka.

Chain of syntaxin 1A carboxyl-terminal domain (amino acids 194-267), soluble recombinant (chain): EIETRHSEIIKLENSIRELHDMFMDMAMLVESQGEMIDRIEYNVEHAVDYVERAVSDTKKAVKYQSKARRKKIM
Chain of His-tagged NSF (N-ethylmaleimide-sensitive factor), soluble recombinant (P18708 whole entry): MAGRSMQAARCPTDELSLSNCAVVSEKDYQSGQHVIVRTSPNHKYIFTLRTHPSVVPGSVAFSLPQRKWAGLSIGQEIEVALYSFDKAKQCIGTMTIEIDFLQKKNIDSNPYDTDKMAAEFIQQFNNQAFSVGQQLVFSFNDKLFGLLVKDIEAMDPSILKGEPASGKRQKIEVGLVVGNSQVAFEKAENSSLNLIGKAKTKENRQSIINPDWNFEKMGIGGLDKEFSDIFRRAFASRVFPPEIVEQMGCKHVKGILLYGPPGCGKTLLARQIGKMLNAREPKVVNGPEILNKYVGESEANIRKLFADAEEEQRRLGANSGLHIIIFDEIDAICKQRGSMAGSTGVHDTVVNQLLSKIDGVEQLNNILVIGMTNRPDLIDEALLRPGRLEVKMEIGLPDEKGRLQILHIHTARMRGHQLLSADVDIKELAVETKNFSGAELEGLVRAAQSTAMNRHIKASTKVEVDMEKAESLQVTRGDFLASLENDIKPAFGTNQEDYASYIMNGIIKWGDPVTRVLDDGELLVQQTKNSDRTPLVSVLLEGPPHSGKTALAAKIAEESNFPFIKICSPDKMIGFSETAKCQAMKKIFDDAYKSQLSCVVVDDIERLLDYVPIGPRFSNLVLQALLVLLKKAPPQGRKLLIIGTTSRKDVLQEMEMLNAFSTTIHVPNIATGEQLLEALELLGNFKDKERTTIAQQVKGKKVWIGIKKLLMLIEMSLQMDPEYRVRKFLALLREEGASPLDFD
Chain of VAMP 2 cytoplasmic domain (amino acids 1-94), recombinant, immobilized on the SPR flow cell (rat) (chain, as listed by the source): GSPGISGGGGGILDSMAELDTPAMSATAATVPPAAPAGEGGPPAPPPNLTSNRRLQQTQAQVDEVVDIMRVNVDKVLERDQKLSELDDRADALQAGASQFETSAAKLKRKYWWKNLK

With “His-tagged NSF (N-ethylmaleimide-sensitive factor), soluble recombinant (from UniProt P18708) (enzyme)”, the densitometry pixel value came out at 1590 pixel value in assay [1]; 163 pixel value in assay [3]; 46 pixel value in [4]; 295 pixel value in assay [5]; 319 pixel value in assay [6]; 0 pixel value in assay [7]. Besides, the densitometry pixel value in assay [8] is 362 pixel value; in assay [9] it was 92 pixel value; in assay [10] it was 12 pixel value; in assay [11], 198 pixel value; in [12], 357 pixel value; in assay [13], 0 pixel value. Also, the values for the percent dissociated in the presence of ATP and Mg++ in [2] and in assay [14] were 11% and 30%, respectively.
In the case of “n-sec1, soluble recombinant (from UniProt P61765)”, the densitometry pixel value in assay [15] worked out at 0 pixel value; in [16] it was 84 pixel value; in assay [17], 618 pixel value; in assay [18], 7 pixel value; in [19] it was 79 pixel value; in assay [20], 687 pixel value. Further, the densitometry pixel value in assay [21] came to 353 pixel value; in assay [22], 623 pixel value; in assay [23], 779 pixel value; in [24] it was 554 pixel value; in [25], 15 pixel value; in [26], 522 pixel value. Further, the densitometry pixel value in [27] is 0 pixel value; in assay [28], 2450 pixel value; in assay [29], 1070 pixel value; in assay [30] it was 0 pixel value.
On to “syntaxin 1A carboxyl-terminal domain (amino acids 194-267), soluble recombinant”, for which, in assay [31], the koff came to 0.0022 s⁻¹ and the on-rate constant (kon) was found to be 470 M⁻¹ s⁻¹. The Kd in assay [32] turned out to be 4.7 µM.
